Assay results taken from patent US20090187998A1.

Molecular target: wild-type serum response factor (SRF) in mouse heart (mouse) (UniProt Q9JM73)
Assay: cell-based or functional assay

Chain of UniProt Q9JM73 (Q9JM73 whole entry): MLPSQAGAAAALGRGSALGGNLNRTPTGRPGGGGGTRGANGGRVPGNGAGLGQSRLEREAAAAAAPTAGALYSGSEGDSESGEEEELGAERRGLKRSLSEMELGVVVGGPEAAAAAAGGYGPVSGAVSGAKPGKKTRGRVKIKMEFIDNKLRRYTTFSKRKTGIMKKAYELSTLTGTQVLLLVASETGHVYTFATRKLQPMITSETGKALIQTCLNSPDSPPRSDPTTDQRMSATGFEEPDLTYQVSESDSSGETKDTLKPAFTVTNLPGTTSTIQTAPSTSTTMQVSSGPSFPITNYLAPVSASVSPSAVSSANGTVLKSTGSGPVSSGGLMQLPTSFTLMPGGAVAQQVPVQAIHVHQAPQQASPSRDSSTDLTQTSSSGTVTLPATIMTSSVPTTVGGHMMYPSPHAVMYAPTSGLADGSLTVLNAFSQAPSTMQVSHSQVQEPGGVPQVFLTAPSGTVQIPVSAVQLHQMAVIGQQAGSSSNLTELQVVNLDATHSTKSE

dominant negative mutant form of human SRF (Thr->Ser at position 159 and Lys->Glu at position 163 of SRF) (from UniProt P11831 1-508)
EMSA: binding of SRF in heart protein lysate to the biotin-labeled wild-type SRE probe (Mild-R SRF Tg vs Non-Tg): 47 % reduced
